Data reported in patent US8648041 (Novo Nordisk, dated 2014).
Numbered stars: 1 amine (or outer) side, 2 acyl side, 3 side chain; on linkers, the order of the positions; unused ones are H or OH. Square brackets hold non-standard residues; d marks the D form. Side chains are listed from the residue outwards. Ends that are not written are not given here. * marks the point of attachment. 9‑(4-carboxyphenoxy)nonanoyl = O=C(O)c1ccc(OCCCCCCCCC(=O)*)cc1; 8‑(4-carboxyphenoxy)octanoyl = O=C(O)c1ccc(OCCCCCCCC(=O)*)cc1; Malonyl(2,2-Me2,histaminyl) = CC(C)(C(=O)NCCc1cnc[nH]1)C(=O)*; Decanoyl(10-(4-HOOC-PhO)) = O=C(O)c1ccc(OCCCCCCCCCC(=O)*)cc1; γGlu = O=C(O)[C@H](CCC(=O)[*:2])N[*:1]; C14 diacid = O=C(O)CCCCCCCCCCCCC(=O)*; C12 diacid = O=C(O)CCCCCCCCCCC(=O)*; AEEA = NCCOCCOCC(=O)O; Aib = CC(C)(N)C(=O)O

How the values were obtained:
human GLP-1 receptor [1] = target: T1, human GLP-1 receptor (human, UniProt P43220 24-463); experiment: SPA, displacement of 125I-GLP-1(7-36)NH2 from membranes with human GLP-1 receptor, 0.005% HSA
T1 construct: whole, on cells; Used as membrane preparations of the transfected hamster (BHK) cell line, not as whole cells; also called hGLP-1/BHK 467-12A membranes
Excerpt: (§1) A shift in the binding affinity, $IC50$, is an indication that the peptide in question binds to albumin, and thereby a prediction of a potential protracted pharmacokinetic profile of the peptide in question in animal models. Conditions Species (in vitro): Hamster Biological End Point: Receptor Binding Assay Method: SPA Receptor: GLP-1 receptor Cell Line: BHK tk-ts13 Cell Culture and Membrane Purification A stable transfected cell line and a high expressing clone were selected for screening. The cells were grown at 5% CO_2 in DMEM, 10% FCS, 1% Pen/Strep (Penicillin/Streptomycin) and 1.0 mg/ml of the selection marker G418.
(§2) 25 ul (micro liter) of test compounds were added to Optiplate. HSA ("high albumin" experiment containing 2% HSA), or buffer ("low albumin" experiment containing 0.005% HSA), was added (50 ul). 5-10 ug protein/sample was added (50 ul) corresponding to 0.1-0.2 mg protein/ml (to be preferably optimised for each membrane preparation). SPA-particles (Wheatgerm agglutinin SPA beads, Perkin Elmer, #RPNQ0001) were added in an amount of 0.5 mg/well (50 ul). […] The plates were sealed with PlateSealer and incubated for 120 minutes at 30° C. while shaking. The plates were centrifuged (1500 rpm, 10 min) and counted in Topcounter. Assay Buffer: 50 mM HEPES 5 mM EGTA 5 mM MgCl2 0.005% Tween™ 20 pH 7.4 HSA was SIGMA A1653.

human GLP-1 receptor [2] = target: T1, human GLP-1 receptor; experiment: SPA, displacement of 125I-GLP-1(7-36)NH2 from membranes with human GLP-1 receptor, 2.0% HSA
Excerpt: as §1, §2

| Binder | IC50 (human GLP-1 receptor [1]) [nM] | IC50 (human GLP-1 receptor [2]) [nM] |
| --- | --- | --- |
| HAEGTFTSDVSSYLEGQAAK([AEEA-AEEA-γGlu-Decanoyl(10-(4-HOOC-PhO))])EFIAWLVRGRK([AEEA-AEEA-γGlu-Decanoyl(10-(4-HOOC-PhO))])G (the added Gly38 is therefore written as a second piece) | < 600 | ≤ 1000 |
| HAEGTFTSDVSSYLEGQAAK([AEEA-AEEA-γGlu-Decanoyl(10-(4-HOOC-PhO))])EFIAWLVRGRK([AEEA-AEEA-γGlu-Decanoyl(10-(4-HOOC-PhO))]) | < 600 | ≤ 1000 |
| HAEGTFTSDVSSYLEGQAAK([AEEA-AEEA-γGlu-Decanoyl(10-(4-HOOC-PhO))])EFIEWLVRGRK([AEEA-AEEA-γGlu-Decanoyl(10-(4-HOOC-PhO))]) | < 600 | ≤ 1000 |
| HAEGTFTSDVSSYLEGQAAK([γGlu-AEEA-AEEA-Decanoyl(10-(4-HOOC-PhO))])EFIAHLVQGRK([γGlu-AEEA-AEEA-Decanoyl(10-(4-HOOC-PhO))]) (also called Chem. 55) | < 600 | ≤ 1000 |
| {Malonyl(2,2-Me2,histaminyl)}-EGTFTSDVSSYLEGQAAK([AEEA-AEEA-γGlu-Decanoyl(10-(4-HOOC-PhO))])EFIAWLVRGRK([AEEA-AEEA-γGlu-Decanoyl(10-(4-HOOC-PhO))])E (also called Chem. 41) [N^9-{2-[2-(1H-Imidazol-4-yl)ethylcarbamoyl]-2-methylpropionyl}, …] | < 600 | ≤ 1000 |
| XAEGTFTSDVSSYLEGQAAKEFIAWLVRGRK (Imp (imidazopropionic acid, des-amino histidine) at 7; Lys26 and Lys37 each acylated at the epsilon-amino group with 10-(4-carboxyphenoxy)decanoyl-gammaGlu-OEG-OEG (GLP-1(7-37) numbering)) | < 600 | ≤ 1000 |
| {2,2‑dimethyl‑3‑oxo‑3‑(pyridin-2-ylmethylamino)propanoyl}-EGTFTSDVSSYLEGQAAK([AEEA-AEEA-γGlu-Decanoyl(10-(4-HOOC-PhO))])EFIAWLVRGRK([AEEA-AEEA-γGlu-Decanoyl(10-(4-HOOC-PhO))]) (also called Chem. 60) [N{9}-[2,2-dimethyl-3-oxo-3-(pyridin-2-ylmethylamino)propanoyl], …] | < 600 | ≤ 1000 |
| HXEGTFTSDVSSYLEGQAAKEFIAHLVQGRK (Aib at 8; Lys26 and Lys37 each acylated at the epsilon-amino group with 10-(4-carboxyphenoxy)decanoyl-gammaGlu-OEG-OEG (GLP-1(7-37) numbering, His = 7), also called Chem. 36) | < 600 | ≤ 1000 |
| HXEGTFTSDVSSYLEGQAAKEFIAHLVQGRK (Aib at 8; Lys26 and Lys37 each acylated at the epsilon-amino group with 11-carboxyundecanoyl-gammaGlu-OEG-OEG (GLP-1(7-37) numbering, His = 7), also called Chem. 40) | < 600 | ≤ 1000 |
| H[Aib]GGTFTSDVSSYLEGQAAK([AEEA-AEEA-γGlu-Decanoyl(10-(4-HOOC-PhO))])EFIAWLVRGRK([AEEA-AEEA-γGlu-Decanoyl(10-(4-HOOC-PhO))]) | < 600 | ≤ 1000 |
| H[Aib]EGTFTSDVSSYLEGRAAK([AEEA-AEEA-γGlu-Decanoyl(10-(4-HOOC-PhO))])EFIAWLVRGRK([AEEA-AEEA-γGlu-Decanoyl(10-(4-HOOC-PhO))]) | < 600 | ≤ 1000 |
| HAEGTFTSDVSSYLEGQAAK([AEEA-AEEA-γGlu-9‑(4-carboxyphenoxy)nonanoyl])EFIAWLVRGRK([AEEA-AEEA-γGlu-9‑(4-carboxyphenoxy)nonanoyl]) | < 600 | ≤ 1000 |
| HAEGTFTSDVSSYLEGQAAK([AEEA-AEEA-γGlu-C14 diacid])EFIAWLVRGRK([AEEA-AEEA-γGlu-C14 diacid]) | < 600 | ≤ 1000 |

Next, values leading:

| IC50 (human GLP-1 receptor [1]) [nM] | IC50 (human GLP-1 receptor [2]) [nM] | Binder |
| --- | --- | --- |
| < 600 | ≤ 1000 | {Malonyl(2,2-Me2,histaminyl)}-EGTFTSDVSSYLEGQAAKEFIAWLVRGRK (not fully specified (residues 18, 29); printed as N^9-{2-[2-(1H-Imidazol-4-yl)-ethylcarbamoyl]-2-methylpropionyl}-N^ε26-{2-[2-(2-{2-[2-(2-{(S)-4-[4-(4-tert-Butylphenyl)butyrylamino]-4-carboxybutyrylamino}ethoxy)ethoxy]acetylamino}ethoxy)ethoxy]acetyl}, N^ε37-{2-[2-(2-{2-[2-(2-{(S)-4-[4-(4-tert-Butylphenyl)butyrylamino]-4-carboxybutyrylamino}ethoxy)ethoxy]acetylamino}ethoxy)ethoxy]acetyl}[Arg^34, Lys^37]GLP-1(9-37)-peptide, also called Chem. 46) |
| < 600 | ≤ 1000 | {Malonyl(2,2-Me2,histaminyl)}-EGTFTSDVSSYLEGQAAK([AEEA-AEEA-γGlu-Decanoyl(10-(4-HOOC-PhO))])EFIAWLVRGRK([AEEA-AEEA-γGlu-Decanoyl(10-(4-HOOC-PhO))]) (also called Chem. 42) |
| < 600 | ≤ 1000 | HAEGTFTSDVSSYLEGQAAK([AEEA-AEEA-γGlu-8‑(4-carboxyphenoxy)octanoyl])EFIAWLVRGRK([AEEA-AEEA-γGlu-8‑(4-carboxyphenoxy)octanoyl]) |
| < 600 | ≤ 1000 | HAEGTFTSDVSSYLEGQAAK([AEEA-AEEA-γGlu-Decanoyl(10-(4-HOOC-PhO))])EFIAWLVRGRK([AEEA-AEEA-γGlu-Decanoyl(10-(4-HOOC-PhO))])E (also called Chem. 65) |
| < 600 | ≤ 1000 | HAEGTFTSDVSSYLEGQAAK([γGlu-AEEA-AEEA-C14 diacid])EFIAWLVRGRK([γGlu-AEEA-AEEA-C14 diacid]) |
| < 600 | ≤ 1000 | HAEGTFTSDVSSYLEGQAAK([AEEA-AEEA-γGlu-Decanoyl(10-(4-HOOC-PhO))])EFIAWLVRGGK([AEEA-AEEA-γGlu-Decanoyl(10-(4-HOOC-PhO))]) |
| < 600 | ≤ 1000 | HAEGTFTSDVSSYLEGQAAK([AEEA-AEEA-γGlu-C14 diacid])EFIAHLVQGRK([AEEA-AEEA-γGlu-C14 diacid]) (also called Chem. 53) |
| < 600 | ≤ 1000 | HAQGTFTSDVSSYLEGQAAK([AEEA-AEEA-γGlu-Decanoyl(10-(4-HOOC-PhO))])EFIAWLVRGRK([AEEA-AEEA-γGlu-Decanoyl(10-(4-HOOC-PhO))]) |
| < 600 | ≤ 1000 | HAEGTFTSDVSSYLEGQAAK([AEEA-AEEA-γGlu-Decanoyl(10-(4-HOOC-PhO))])EFIAHLVQGRK([AEEA-AEEA-γGlu-Decanoyl(10-(4-HOOC-PhO))]) (also called Chem. 52) |
| < 600 | ≤ 1000 | HAEGTFTSDVSSYLEGQAAK([AEEA-AEEA-γGlu-8‑(4-carboxyphenoxy)octanoyl])EFIAWLVRGGK([AEEA-AEEA-γGlu-8‑(4-carboxyphenoxy)octanoyl]) |
| < 600 | ≤ 1000 | HAEGTFTSDVSSYLEGQAAK([AEEA-AEEA-γGlu-C12 diacid])EFIAHLVQGRK([AEEA-AEEA-γGlu-C12 diacid]) (also called Chem. 54) |
